Experimental data: patent publication US10494423B2, “Maytansinoid derivatives with peptide linker and conjugates thereof” (priority 2011, dated 2019)

Target: T1, cathepsin B (Bos taurus, UniProt P07688)
T1 construct: cathepsin B (bovine spleen; EMD Biosciences); purchased EMD Biosciences; host or cells: bovine spleen (tissue-derived enzyme)
Assay: In vitro cleavage of conjugate by cathepsin B
Type: biochemical, bovine
Conditions: 4.6 μM conjugate, 0.9 μM cathepsin B, pH 6.0, 37° C., 0-26 h
Protocol: huC242-3b conjugate (4.6 μM) was incubated with 0.9 μM cathepsin B (bovine spleen; EMD Biosciences) in pH 6.0 buffer containing 0.6 mM CaCl2/MgCl2 and 2 mM DTT (dithiothreitol) at 37° C. 100 μl aliquots were taken at various time points (0, 1, 3, 8, 17, and 26 h) and free maytansinoids were quantified using a mixed-mode chromatography method (Fleming, et al, Analytical Biochemistry, 2005, 340, 272). Briefly, a HISEP shielded hydrophobic phase column (5 μm particle size, 4.6×250 mm length, Supelco, Bellefonte, Pa., USA) was used for analyzing Ab-DM1 conjugates. Detection was at 252 and 280 nm (extracted from PDA spectra). The flow rate was 0.7 ml/min. Mobile phase A consisted of 100 mM ammonium acetate (pH 7.0). Mobile phase B was 100% acetonitrile. The column was equilibrated at 25% B followed by a linear gradient over 25 min to 40% B after sample injection. […] Synthesized compound 5 had the same retention time and mass spectrum as this metabolite.

B1: huC242-3b: huC242 antibody conjugated via SMCC linker to compound 2; 3.3 maytansinoids per antibody (conjugate, chains of the INN, looked up)
VH: QVQLVQSGAEVKKPGETVKISCKASDYTFTYYGMNWVKQAPGQGLKWMGWIDTTTGEPTYAQKFQGRIAFSLETSASTAYLQIKSLKSEDTATYFCARRGPYNWYFDVWGQGTTVTVSS
VL: DIVMTQSPLSVPVTPGEPVSISCRSSKSLLHSNGNTYLYWFLQRPGQSPQLLIYRMSNLVSGVPDRFSGSGSGTAFTLRISRVEAEDVGVYYCLQHLEYPFTFGPGTKLELK
modifications: SMCC-linked maytansinoid compound 2, DAR 3.3
notes: huC242 antibody conjugated via SMCC linker to compound 2; 3.3 maytansinoids per antibody
released metabolite on cathepsin B cleavage: sole released metabolite 5 was detected
